Tests used:
TRPV1 = experiment: cell-based or functional assay
ARD of TRPV1 = target: T1, ARD of TRPV1 (Rattus norvegicus (Rat), UniProt O35433 101-364); experiment: SPR steady state, ARD immobilised on CM5 chip, design as analyte, 25 C
T1 construct: Purified from E. coli and immobilised on a CM5 chip by amine coupling; also called TRPV1 ARD; ankyrin repeat-like domain
T1 sequence (O35433 other isoform, or with tags, fused parts or gaps limits assumed): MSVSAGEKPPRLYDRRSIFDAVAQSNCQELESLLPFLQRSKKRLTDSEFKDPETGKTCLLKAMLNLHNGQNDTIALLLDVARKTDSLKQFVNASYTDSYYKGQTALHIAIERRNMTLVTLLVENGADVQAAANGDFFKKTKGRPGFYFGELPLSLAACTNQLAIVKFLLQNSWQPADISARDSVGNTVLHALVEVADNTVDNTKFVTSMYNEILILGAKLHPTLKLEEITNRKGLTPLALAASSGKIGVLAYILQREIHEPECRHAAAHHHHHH
Description: The purified ARD was immobilized on the CM5 SPR sensor chip by an amine-coupling procedure. SPR experiments were conducted on the Biacore T3000 instrument (GE healthcare). The designed proteins were perfused as analytes. Steady-state SPR responses were measured and used to determine the KD values. In all experiments, the analysis was performed at 25° C., with an association time of 120 see at a flow rate of 20 μL/min.

B1: De1 (designed binder)
chain: NGYSSEDKLRIAKRHLLPKQIERNALKKGELFVSEFAILGIILFYTDEAGVRGLEREISKLCRKAVKQLLLDKSTTSSHASGFHLHDYLGVMR
notes: For SPR: expressed from pET-32a in E. coli BL21(DE3), purified on a Ni column and by HPLC; also called Del; designed protein De1
TRPV1
  EC50 of capsaicin activation of TRPV1 co-expressed with De1 (whole-cell patch clamp): 50.9 nM
ARD of TRPV1
  Kd: 26.5 nM

Reference: patent publication US20240166695A1 (University of California, published 2024)
